Assay results from patent CN112409485A (BEIJING NIUAMBO BIOTECHNOLOGY CO LTD, dated 2021).

T1: Human CEACAM6 Protein, Human, Recombinant (His Tag) (human, UniProt P40199 35-320)
T1 construct: Bought antigen; also called CEACAM6抗原; CEACAM6蛋白; not shown: His tag
T1 sequence (looked up): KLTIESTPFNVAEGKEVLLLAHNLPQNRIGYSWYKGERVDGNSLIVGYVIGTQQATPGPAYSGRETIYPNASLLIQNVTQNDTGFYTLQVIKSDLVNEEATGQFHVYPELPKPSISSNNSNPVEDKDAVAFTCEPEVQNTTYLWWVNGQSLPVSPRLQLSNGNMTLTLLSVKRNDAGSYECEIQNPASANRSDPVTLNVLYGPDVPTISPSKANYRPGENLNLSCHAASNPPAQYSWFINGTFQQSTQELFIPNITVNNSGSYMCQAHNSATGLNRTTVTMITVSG

B1: 单域抗体NBC25 (VHH)
VHH: QVKLEESGGGLVQPGGSLRLSCAASGQTARAGIMGWFRQAPGKEREFVAAMGRSGASAYYQDSVQGRFTISRDNAQNTVFLQMNSLKPEDTAVYHCAAGNPIALTTAQYYDYWGQGTQVTVSS
notes: Alpaca VHH
B2: 单域抗体NBC10 (VHH)
VHH: QVKLEESGGGLVQAGGSLRLSCAASGRTFSNYAMGWFREAPGKEREFVGSSSRSGSFSYLVDSVKGRFTIFRDNDKNTVYLQMNSLKPEDTAVYYCAAQTAIRAGVRDDYDFWGQGAQVTVSS
notes: Alpaca VHH
B3: 单域抗体NBC36 (VHH)
VHH: QVQLVESGGGLVQAGGSLRLSCVVSGIDFRINNMGWYRQAPGTQRELVASVTPGRNTNYADSVKGRFTISRDNAQNTVYLQMNSLQPEDTAVYSCSAYGPSGAYWGQGTQVTVSS
notes: Alpaca VHH

What follows are binders tested against T1, Human CEACAM6 Protein, Human, … (assay: phage ELISA, phage-displayed VHH on coated CEACAM6).

Row | binding result | Binder
1 | binds | B1
2 | binds | B2
3 | binds | B3
